Assay results: ChEMBL document CHEMBL3864159, “Variation of the aryl substituent on the piperazine ring within the 4-(piperazin-1-yl)-2,6-di(pyrrolidin-1-yl)pyrimidine scaffold unveils potent, non-competitive inhibitors of the inflammatory caspases” (Bioorg Med Chem Lett, 2016)

Columns and labels:
[1] = compound: c1ccc(CCN2CCN(c3cc(N4CCCC4)nc(N4CCCC4)n3)CC2)cc1; assay: (§1) Non-competitive inhibition of human recombinant N-terminal His-tagged DTT-activated caspase-1 expressed in Escherichia coli assessed as enzyme Km at 500 nM using Ac-WEHD-AMC as substrate preincubated for 30 mins followed by substrate addition by Michaelis-Menten plot analysis (reference value: 8.18 +/- 2.9 uM)
[2] = compound: c1ccc(CCN2CCN(c3cc(N4CCCC4)nc(N4CCCC4)n3)CC2)cc1; assay: as §1, with “Vmax” for “Km”, “50” for “500”, “13162” for “8.18”, “1446 RFU/min)” for “2.9 uM)”
[3] = compound: c1ccc(CCN2CCN(c3cc(N4CCCC4)nc(N4CCCC4)n3)CC2)cc1; assay: as §1, with “Vmax” for “Km”, “13162” for “8.18”, “1446 RFU/min)” for “2.9 uM)”
[4] = compound: c1ccc(CCN2CCN(c3cc(N4CCCC4)nc(N4CCCC4)n3)CC2)cc1; assay: as §1, with “50” for “500”

B1: Caspase-1 (Homo sapiens), P29466 (protein)
chain: MADKVLKEKRKLFIRSMGEGTINGLLDELLQTRVLNKEEMEKVKRENATVMDKTRALIDSVIPKGAQACQICITYICEEDSYLAGTLGLSADQTSGNYLNMQDSQGVLSSFPAPQAVQDNPAMPTSSGSEGNVKLCSLEEAQRIWKQKSAEIYPIMDKSSRTRLALIICNEEFDSIPRRTGAEVDITGMTMLLQNLGYSVDVKKNLTASDMTTELEAFAHRPEHKTSDSTFLVFMSHGIREGICGKKHSEQVPDILQLNAIFNMLNTKNCPSLKDKPKVIIIQACRGDSPGVVWFKDSVGVSGNLSLPTTEEFEDDAIKKAHIEKDFIAFCSSTPDNVSWRHPTMGSVFIGRLIEHMQEYACSCDVEEIFRKVRFSFEQPDGRAQMPTTERVTLTRCFYLFPGH
With B1 the Km [1] was 5.75 µM, the Vmax [2] was 4440 RFU/min and the Vmax [3] was 2840 RFU/min. For the same protein, the Km [4] was 5.76 µM.
